This note sets out measurements from patent US5661001.

The target of one test is human thrombin (human) (UniProt P00734).

Consider [Cys^33 ]HV1--[Cys^33 ]HV1 dimer, for which the titration against 2.0 nM thrombin in presence of 200 µM D-Val-Leu-Arg-p-nitroanilide: fraction of active molecules with human thrombin (human) amounted to 0.97. For the same substance, the inhibition of α-thrombin digesting Chromozym TH with α-thrombin is 82%.
